Measured values as given in US20260234245A1 (ELTHERA, published 2026).
Where a chain is given by its changes, count along the chain named.

B1: OV549.20 mouse IgG2a (antibody, V domains shown)
VH: DVQLQESGPGLVKPSQSLSLTCTVTGYSITSDYAWNWIRQFPGNKVEWMGYISYSGSFSYHPSLKSRISITRDTSKNQFFLQLSSVTTEDTATYYCARSFSYGYGFAYWGQGTLVTVSS
VL: DIVMTQSHKFMSTSVGDRVNITCKASQDVSSAVAWYQQKPGQSPKLLIYSASYRYTGVPDHFTGSGSGTDFTFTISSVQAEDLAVYYCQQHYSTPWTFGGGTKLEIKR
modifications: N-glycosylation motif Asn-Ile-Thr in the variable region; glycosylated and non-glycosylated light chain forms present
notes: Recombinant mouse IgG2a expressed in CHO K1 cells; also called OV549.20 (murine); mAb OV549.20
B2: H4L2 (antibody, V domains shown)
VH: B1 VH with D1Q, S17T, I68V, S69T, T71S, F80S, Q82K, T88A, E89A, T93V
VL: DIVMTQSPSSLSASVGDRVTITCKASQDVSSAVAWYQQKPGQSPKLLIYSASYRYTGVPDRFSGSGSGTDFTFTISSLQPEDFATYYCQQHYSTPWTFGGGTKLEIK
notes: also called humanized antibody variant H4L2

Key:
[1] = biological target: T1, recombinant human NrCAM-human Fc fusion protein (human, UniProt Q92823 25-1167, limits assumed); assay: direct ELISA on plate-coated human NrCAM (panel titled 'human NrCAM-His'; the text calls it an NrCAM-human Fc fusion), HRP goat anti-mouse detection
T1 construct: also called plate-coated human NrCAM; Neuronal cell adhesion molecule (NrCAM)
Method: (§1) Recombinant human L1CAM-human Fc and human NrCAM-human Fc fusion proteins, as well as recombinant hexahistidine-tagged versions of human CHL1 and Neurofascin, respectively, were added to ELISA plates at a concentration of 1 μg/mL in 50 mM carbonate buffer pH 9.6 (100 μL per well). Plates were incubated overnight at 4° C., washed 5 times with PBS/0.05% Tween, and blocked by the addition of 200 μL per well PBS/0.05% Tween/1% Bovine serum albumin (BSA). […] As positive controls the same dilution series were prepared for commercial mouse antibodies directed against L1CAM (clone UJ127.11, NovusBio), human NrCAM (clone 308000, Creative Diagnostics), human CHL1 (clone 6E6E4, Sino Biological) and human Neurofascin (clone 727030, R&D systems). Plates were washed 5 times with PBS/0.05% Tween, and 100 μL per well of the antibody dilution series were added to the plates. After an incubation for 1 hour at room temperature, plates were washed again and 100 μL per well of a horse-radish peroxidase conjugated polyclonal goat anti-mouse antibody (diluted 1:1000 in PBS/0.05% Tween/1% BSA) was added. […] After an incubation of 8 minutes at room temperature, reactions were stopped by the addition of 50 μL per well 0.16 M H₂SO₄, and absorption at 450 nm was determined in a microplate reader.

[2] = biological target: T2, recombinant hexahistidine-tagged human Neurofascin (human, UniProt O94856 25-1217, limits assumed); assay: direct ELISA on plate-coated human Neurofascin-His, HRP goat anti-mouse detection
T2 construct: Hexahistidine-tagged; also called plate-coated human Neurofascin
T2 sequence (looked up): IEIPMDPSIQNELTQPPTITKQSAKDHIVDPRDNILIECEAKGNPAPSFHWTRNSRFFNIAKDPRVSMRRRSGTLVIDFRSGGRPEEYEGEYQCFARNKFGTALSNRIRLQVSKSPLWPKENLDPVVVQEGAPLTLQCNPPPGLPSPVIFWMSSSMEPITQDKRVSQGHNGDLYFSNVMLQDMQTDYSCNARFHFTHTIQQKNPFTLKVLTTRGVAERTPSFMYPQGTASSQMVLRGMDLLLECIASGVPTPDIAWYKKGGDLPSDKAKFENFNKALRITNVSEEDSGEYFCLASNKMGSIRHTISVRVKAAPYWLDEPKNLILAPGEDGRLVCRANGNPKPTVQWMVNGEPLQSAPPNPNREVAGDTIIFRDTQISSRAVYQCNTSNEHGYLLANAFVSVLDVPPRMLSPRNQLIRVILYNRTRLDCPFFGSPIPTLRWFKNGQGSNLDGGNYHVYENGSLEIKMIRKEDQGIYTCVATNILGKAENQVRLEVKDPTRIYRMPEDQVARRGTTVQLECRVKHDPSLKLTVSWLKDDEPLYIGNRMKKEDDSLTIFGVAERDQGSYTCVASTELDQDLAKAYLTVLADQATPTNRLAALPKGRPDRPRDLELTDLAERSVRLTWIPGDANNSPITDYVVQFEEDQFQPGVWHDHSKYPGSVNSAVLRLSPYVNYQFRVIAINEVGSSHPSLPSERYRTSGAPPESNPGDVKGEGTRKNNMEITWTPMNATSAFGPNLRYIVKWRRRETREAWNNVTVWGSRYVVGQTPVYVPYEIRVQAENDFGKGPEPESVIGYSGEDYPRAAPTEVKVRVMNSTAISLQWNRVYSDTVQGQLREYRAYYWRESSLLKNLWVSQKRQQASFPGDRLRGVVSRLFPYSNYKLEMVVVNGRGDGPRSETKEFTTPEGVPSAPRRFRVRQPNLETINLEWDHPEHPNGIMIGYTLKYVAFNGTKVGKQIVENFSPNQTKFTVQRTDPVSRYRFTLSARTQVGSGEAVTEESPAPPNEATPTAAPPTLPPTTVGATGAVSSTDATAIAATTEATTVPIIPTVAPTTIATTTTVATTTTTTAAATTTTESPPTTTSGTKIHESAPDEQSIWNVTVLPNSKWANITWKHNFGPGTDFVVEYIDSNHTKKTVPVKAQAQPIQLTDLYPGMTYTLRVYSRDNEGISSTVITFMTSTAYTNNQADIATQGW
Method: as §1

[3] = biological target: T3, recombinant hexahistidine-tagged human CHL1 (human, UniProt O00533 25-1082, limits assumed); assay: direct ELISA on plate-coated human CHL1-His, HRP goat anti-mouse detection
T3 construct: Hexahistidine-tagged; also called plate-coated human CHL1; close homolog of L1 (CHL1)
T3 sequence (looked up): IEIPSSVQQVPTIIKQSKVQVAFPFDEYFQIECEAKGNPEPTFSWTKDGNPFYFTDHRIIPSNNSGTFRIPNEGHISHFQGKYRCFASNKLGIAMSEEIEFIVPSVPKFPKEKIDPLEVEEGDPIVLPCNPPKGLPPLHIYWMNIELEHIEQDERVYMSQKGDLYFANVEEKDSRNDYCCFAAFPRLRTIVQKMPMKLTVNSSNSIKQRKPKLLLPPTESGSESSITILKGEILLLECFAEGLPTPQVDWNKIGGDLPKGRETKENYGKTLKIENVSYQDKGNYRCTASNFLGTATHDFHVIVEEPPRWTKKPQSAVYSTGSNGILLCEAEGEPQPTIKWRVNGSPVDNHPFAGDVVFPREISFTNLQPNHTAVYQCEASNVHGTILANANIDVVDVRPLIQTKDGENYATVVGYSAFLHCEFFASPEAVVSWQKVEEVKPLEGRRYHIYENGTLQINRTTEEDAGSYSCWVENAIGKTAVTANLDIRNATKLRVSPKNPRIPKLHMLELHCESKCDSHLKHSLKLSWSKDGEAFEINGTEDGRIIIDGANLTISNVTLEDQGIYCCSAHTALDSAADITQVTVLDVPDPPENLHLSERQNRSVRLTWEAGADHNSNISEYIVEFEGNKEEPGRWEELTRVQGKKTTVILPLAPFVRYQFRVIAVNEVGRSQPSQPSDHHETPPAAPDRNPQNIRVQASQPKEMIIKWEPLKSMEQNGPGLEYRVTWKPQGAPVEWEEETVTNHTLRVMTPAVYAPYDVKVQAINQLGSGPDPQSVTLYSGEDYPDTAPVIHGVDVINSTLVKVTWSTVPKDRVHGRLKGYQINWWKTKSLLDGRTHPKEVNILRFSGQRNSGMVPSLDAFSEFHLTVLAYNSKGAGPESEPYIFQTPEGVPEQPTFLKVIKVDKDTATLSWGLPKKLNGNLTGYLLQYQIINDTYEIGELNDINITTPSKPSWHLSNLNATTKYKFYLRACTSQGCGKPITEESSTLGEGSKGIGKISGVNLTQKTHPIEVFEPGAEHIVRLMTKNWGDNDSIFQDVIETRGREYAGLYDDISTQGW
Method: as §1

[4] = biological target: T4, soluble His-tagged human L1CAM (extracellular portion, amino acids 20 to 1120) (human, UniProt P32004 20-1120); assay: SPR (Biacore T200), antibody captured on C1 Protein A chip, His-tagged human L1CAM as analyte 10, 20, 40 nM, 1:1 Langmuir fit
T4 construct: range 20-1120; Expressed in HEK cells with an N-terminal leader peptide for secretion (not part of the assayed protein)
Method: Monovalent kinetic binding constants of the eight humanized antibody variants towards human L1CAM were determined by surface plasmon resonance using a Biacore T200 instrument. Antibodies were captured via their Fc regions on a C1 Protein A Chip (GE Healthcare), and soluble His-tagged human L1CAM was injected as analyte in 3 different concentrations (10, 20 and 40 nM), using 10 mM HEPES/150 mM NaCl/3 mM EDTA/0.05% Tween 20 as running buffer. Detected resonance units (sensorgrams) were fitted to a 1:1 Langmuir binding model and association (kₐ) and dissociation (kd) rate constants as well as the affinity constants (KD) were calculated.

T4 sequence (P32004 other isoform, or with tags, fused parts or gaps limits assumed): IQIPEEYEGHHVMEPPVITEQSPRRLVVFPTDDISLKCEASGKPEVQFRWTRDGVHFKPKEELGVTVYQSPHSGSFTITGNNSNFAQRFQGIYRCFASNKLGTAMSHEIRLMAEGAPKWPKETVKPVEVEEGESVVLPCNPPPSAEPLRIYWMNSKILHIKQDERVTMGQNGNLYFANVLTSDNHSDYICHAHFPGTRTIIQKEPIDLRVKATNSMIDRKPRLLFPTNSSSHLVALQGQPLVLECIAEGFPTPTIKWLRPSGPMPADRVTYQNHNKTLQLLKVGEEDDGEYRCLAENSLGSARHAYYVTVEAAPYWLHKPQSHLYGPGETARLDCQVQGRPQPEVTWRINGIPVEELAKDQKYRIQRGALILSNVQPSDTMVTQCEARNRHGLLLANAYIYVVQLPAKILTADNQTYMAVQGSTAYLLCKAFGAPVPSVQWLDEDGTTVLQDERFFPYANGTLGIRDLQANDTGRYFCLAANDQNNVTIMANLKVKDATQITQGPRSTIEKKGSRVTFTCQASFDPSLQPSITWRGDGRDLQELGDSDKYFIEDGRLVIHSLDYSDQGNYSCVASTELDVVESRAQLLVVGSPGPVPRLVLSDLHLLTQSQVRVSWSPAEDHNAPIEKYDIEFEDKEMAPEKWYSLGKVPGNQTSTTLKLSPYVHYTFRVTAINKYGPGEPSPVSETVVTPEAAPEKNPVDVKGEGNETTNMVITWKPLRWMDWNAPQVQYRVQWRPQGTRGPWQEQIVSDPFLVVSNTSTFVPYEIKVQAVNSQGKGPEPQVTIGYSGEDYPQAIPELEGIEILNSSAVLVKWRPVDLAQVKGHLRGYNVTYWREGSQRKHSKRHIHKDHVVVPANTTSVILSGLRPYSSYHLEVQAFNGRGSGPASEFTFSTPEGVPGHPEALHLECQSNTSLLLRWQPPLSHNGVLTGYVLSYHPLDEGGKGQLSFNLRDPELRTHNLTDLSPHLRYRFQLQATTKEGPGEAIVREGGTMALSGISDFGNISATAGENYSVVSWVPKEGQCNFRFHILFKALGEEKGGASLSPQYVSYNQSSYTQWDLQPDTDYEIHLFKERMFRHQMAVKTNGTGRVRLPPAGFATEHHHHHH
T1 sequence (Q92823 25-1167 limits assumed): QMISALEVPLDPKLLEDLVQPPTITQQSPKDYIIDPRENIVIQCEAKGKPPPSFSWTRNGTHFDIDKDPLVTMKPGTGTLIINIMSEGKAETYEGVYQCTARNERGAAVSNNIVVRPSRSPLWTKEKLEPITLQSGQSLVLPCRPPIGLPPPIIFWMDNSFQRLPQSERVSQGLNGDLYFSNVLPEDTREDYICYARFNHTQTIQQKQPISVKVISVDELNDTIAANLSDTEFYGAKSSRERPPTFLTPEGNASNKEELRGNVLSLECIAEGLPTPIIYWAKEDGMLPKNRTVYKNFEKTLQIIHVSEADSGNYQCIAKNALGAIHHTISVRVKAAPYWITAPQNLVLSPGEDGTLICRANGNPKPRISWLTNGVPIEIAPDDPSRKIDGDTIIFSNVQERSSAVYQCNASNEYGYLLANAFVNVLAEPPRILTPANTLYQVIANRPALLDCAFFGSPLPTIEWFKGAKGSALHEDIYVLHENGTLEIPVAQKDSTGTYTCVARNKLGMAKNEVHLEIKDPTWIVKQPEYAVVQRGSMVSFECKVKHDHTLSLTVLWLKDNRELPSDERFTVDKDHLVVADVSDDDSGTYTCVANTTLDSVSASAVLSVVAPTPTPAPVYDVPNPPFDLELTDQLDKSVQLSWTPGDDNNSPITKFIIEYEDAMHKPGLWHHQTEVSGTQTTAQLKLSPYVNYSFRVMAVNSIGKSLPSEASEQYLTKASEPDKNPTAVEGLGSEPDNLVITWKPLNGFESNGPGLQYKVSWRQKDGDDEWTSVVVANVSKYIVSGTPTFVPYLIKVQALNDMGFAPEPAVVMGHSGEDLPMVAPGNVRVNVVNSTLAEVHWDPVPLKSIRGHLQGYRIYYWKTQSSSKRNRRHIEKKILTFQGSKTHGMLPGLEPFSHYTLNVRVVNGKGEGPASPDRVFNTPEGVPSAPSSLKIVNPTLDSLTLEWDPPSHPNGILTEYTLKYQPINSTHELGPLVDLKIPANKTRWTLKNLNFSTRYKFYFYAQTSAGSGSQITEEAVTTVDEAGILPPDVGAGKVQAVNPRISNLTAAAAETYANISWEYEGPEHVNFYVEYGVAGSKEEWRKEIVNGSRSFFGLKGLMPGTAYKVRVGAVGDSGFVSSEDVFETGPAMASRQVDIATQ

Binder	binding result [1]	binding result [2]	binding result [3]	Kd [4] [nM]	koff [4] [s⁻¹]	kon [4] [M⁻¹ s⁻¹]
B1	no binding (tested: 1 µg/mL)	no binding (tested: 1 µg/mL)	no binding (tested: 1 µg/mL)	–	–	–
B2	–	–	–	6.3	0.000859	137000
